Kd, stoichiometry N and dH data for two substances are collected here from PMC3972757.

One assay addresses ubiquitin (Homo sapiens) (UniProt P0CG48). Briefly: biosensor. Conditions: cited from earlier work.
Assay [1] has as its target catalytic domain of AMSH, AMSH 219-424 E280A (human) (UniProt O95630). Briefly: AUC.
The target is the same in assay [2]. Nature of the assay: ITC. (ITC needs no label: the signal is the heat of the interaction.)

Sequence of catalytic domain of AMSH, AMSH 219-424 E280A (human) (O95630 219-424 E280A): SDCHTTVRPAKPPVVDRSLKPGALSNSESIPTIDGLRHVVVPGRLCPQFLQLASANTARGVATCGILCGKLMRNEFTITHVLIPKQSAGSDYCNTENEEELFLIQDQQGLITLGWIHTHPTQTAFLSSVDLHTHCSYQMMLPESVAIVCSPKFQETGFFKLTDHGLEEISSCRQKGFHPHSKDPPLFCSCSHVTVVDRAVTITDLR
Sequence of STAM UIM (Q92783 168-193): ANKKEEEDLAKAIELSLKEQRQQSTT

A word on the Kd: it is a measure of binding affinity in units of concentration. Turning to STAM UIM (from UniProt Q92783), the dissociation constant (Kd) with ubiquitin (Homo sapiens) was 182 µM.
The stoichiometry N is a count of units in the complex or per binding partner. In the case of “SH3 domain of STAM2 (from UniProt O75886 202-261) (domain or fragment)”, the stoichiometry N in assay [1] is 1. In assay [2], this substance returned a Kd of 1.4 µM and a dH of -15.1 kcal/mol.
